Target: CD44v6 (endogenous human CD44 variant isoforms containing exon v6) (human), P16070
Experiment: cell-based or functional assay

B1: human CD44v6 14-mer peptide having SEQ ID NO: 2 (peptide)
peptide: KEQWFGNRWHEGYR
With B1 as the binder, how does the entry of InlB-coated latex beads into HeLa cells (block of entry) read?
Its entry of InlB-coated latex beads into HeLa cells (block of entry) is 100%.

Source: patent US20100305026A1
